Earlier results in patent US8257684B2, “Methods for identifying and targeting autonomic brain regions” (Neurosigma, Inc., priority 2008, dated 2012).
No end group written: not given here.

Biological target: T1, OX1R (Homo sapiens, UniProt O43613)
T1 sequence (O43613 1-425): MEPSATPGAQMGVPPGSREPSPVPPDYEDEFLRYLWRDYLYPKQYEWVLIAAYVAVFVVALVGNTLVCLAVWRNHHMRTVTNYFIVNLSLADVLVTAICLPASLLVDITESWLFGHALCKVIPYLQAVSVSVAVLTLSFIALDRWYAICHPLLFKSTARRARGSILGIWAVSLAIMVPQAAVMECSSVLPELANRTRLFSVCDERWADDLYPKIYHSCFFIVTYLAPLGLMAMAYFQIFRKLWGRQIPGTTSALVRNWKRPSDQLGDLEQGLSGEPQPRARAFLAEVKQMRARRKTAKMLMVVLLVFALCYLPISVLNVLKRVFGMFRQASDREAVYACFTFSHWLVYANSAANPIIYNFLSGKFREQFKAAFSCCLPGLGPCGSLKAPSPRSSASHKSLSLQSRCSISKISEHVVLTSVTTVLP
Details: ORXa versus ORXb; Lund et al., Journal of Biological Chemistry

## Orexin-A (QPLPDCCRQKTCSCRLYELLHGAGNHAAGILTL; not fully specified (residue 1, C-terminus, bridges); cysteine pairing not given here; UniProt O43612 34-66, looked up) [ORXa, ORX molecule produced in the LHA; agonist of OX1R]
  higher affinity of OX1R for ORXa than for ORXb: approximately 10 fold
